From patent US20250361268A1, “NOVEL ANTI-INFLAMMATORY PEPTIDE AND USE THEREOF” (NOVACELL TECHNOLOGY INC., priority 2022, published 2025)

T1: FPR1 (UniProt P21462 1-350, limits assumed)
T1 sequence (looked up): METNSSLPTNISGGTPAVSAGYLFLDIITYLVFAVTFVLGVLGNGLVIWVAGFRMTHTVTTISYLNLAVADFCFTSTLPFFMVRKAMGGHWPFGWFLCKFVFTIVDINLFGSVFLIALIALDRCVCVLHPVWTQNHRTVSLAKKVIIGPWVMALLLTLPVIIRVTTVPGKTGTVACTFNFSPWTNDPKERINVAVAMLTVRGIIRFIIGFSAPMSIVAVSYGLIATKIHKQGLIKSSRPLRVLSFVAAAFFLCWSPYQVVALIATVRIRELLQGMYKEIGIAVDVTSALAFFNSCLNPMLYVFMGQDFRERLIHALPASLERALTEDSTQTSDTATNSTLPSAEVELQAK

T2: formyl peptide receptor 2 (FPR2) (UniProt P25090 1-351, limits assumed)
T2 sequence (looked up): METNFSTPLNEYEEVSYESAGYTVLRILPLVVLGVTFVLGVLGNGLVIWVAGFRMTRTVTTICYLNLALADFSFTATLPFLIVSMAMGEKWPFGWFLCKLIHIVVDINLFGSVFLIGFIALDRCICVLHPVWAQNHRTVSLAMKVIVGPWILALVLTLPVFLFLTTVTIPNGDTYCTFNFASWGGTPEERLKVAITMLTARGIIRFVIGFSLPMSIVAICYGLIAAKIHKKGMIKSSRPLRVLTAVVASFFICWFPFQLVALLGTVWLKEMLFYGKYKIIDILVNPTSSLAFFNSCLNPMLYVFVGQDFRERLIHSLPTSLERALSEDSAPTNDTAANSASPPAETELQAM


Columns and labels:
FPR1 = target: T1, FPR1; test: cell-based or functional assay
[1] = target: T2, formyl peptide receptor 2 (FPR2); test: cell-based or functional assay

| EC50 for [Ca2+] (FPR1) [µM] | EC50 for [Ca2+] [1] [nM] | Binder |
| --- | --- | --- |
| > 10 | < 10 | HMRYKPM (HELM PEPTIDE1{[CCCCCCCC(=O)[*:2]].H.M.R.Y.K.P.[dM].[am]}$$$$V2.0; SMILES CCCCCCCC(=O)N[C@@H](Cc1c[nH]cn1)C(=O)N[C@@H](CCSC)C(=O)N[C@@H](CCCNC(=N)N)C(=O)N[C@@H](Cc1ccc(O)cc1)C(=O)N[C@@H](CCCCN)C(=O)N1CCC[C@H]1C(=O)N[C@H](CCSC)C(N)=O) [peptide of SEQ ID NO 61] |
| > 10 | < 10 | MRYKPM (HELM PEPTIDE1{[CCCCCCCC(=O)[*:2]].M.R.Y.K.P.[dM].[am]}$$$$V2.0; SMILES CCCCCCCC(=O)N[C@@H](CCSC)C(=O)N[C@@H](CCCNC(=N)N)C(=O)N[C@@H](Cc1ccc(O)cc1)C(=O)N[C@@H](CCCCN)C(=O)N1CCC[C@H]1C(=O)N[C@H](CCSC)C(N)=O) [peptide of SEQ ID NO 57] |
| > 10 | < 10 | PMRYKPM (HELM PEPTIDE1{[CCCC(=O)[*:2]].P.M.R.Y.K.P.[dM].[am]}$$$$V2.0; SMILES CCCC(=O)N1CCC[C@H]1C(=O)N[C@@H](CCSC)C(=O)N[C@@H](CCCNC(=N)N)C(=O)N[C@@H](Cc1ccc(O)cc1)C(=O)N[C@@H](CCCCN)C(=O)N1CCC[C@H]1C(=O)N[C@H](CCSC)C(N)=O) [peptide of SEQ ID NO 64] |
| > 10 | < 10 | RMRYKVM (HELM PEPTIDE1{[ac].R.M.R.Y.K.V.[dM].[am]}$$$$V2.0; SMILES CSCC[C@H](NC(=O)[C@H](CCCNC(=N)N)NC(C)=O)C(=O)N[C@@H](CCCNC(=N)N)C(=O)N[C@@H](Cc1ccc(O)cc1)C(=O)N[C@@H](CCCCN)C(=O)N[C@H](C(=O)N[C@H](CCSC)C(N)=O)C(C)C) [peptide of SEQ ID NO 6] |
| > 10 | < 10 | PMRYKPM (HELM PEPTIDE1{[ac].P.M.R.Y.K.P.[dM].[am]}$$$$V2.0; SMILES CSCC[C@H](NC(=O)[C@@H]1CCCN1C(C)=O)C(=O)N[C@@H](CCCNC(=N)N)C(=O)N[C@@H](Cc1ccc(O)cc1)C(=O)N[C@@H](CCCCN)C(=O)N1CCC[C@H]1C(=O)N[C@H](CCSC)C(N)=O) [peptide of SEQ ID NO 63] |
| > 10 | < 10 | HMRYKPM (HELM PEPTIDE1{[ac].H.M.R.Y.K.P.[dM].[am]}$$$$V2.0; SMILES CSCC[C@H](NC(=O)[C@H](Cc1c[nH]cn1)NC(C)=O)C(=O)N[C@@H](CCCNC(=N)N)C(=O)N[C@@H](Cc1ccc(O)cc1)C(=O)N[C@@H](CCCCN)C(=O)N1CCC[C@H]1C(=O)N[C@H](CCSC)C(N)=O) [peptide of SEQ ID NO 59] |
| > 10 | < 10 | HMRYKPM (HELM PEPTIDE1{H.M.R.Y.K.P.[dM].[am]}$$$$V2.0; N-terminus assumed; SMILES CSCC[C@H](NC(=O)[C@@H](N)Cc1c[nH]cn1)C(=O)N[C@@H](CCCNC(=N)N)C(=O)N[C@@H](Cc1ccc(O)cc1)C(=O)N[C@@H](CCCCN)C(=O)N1CCC[C@H]1C(=O)N[C@H](CCSC)C(N)=O) [peptide of SEQ ID NO 58] |
| > 10 | < 10 | PMRYKPM (HELM PEPTIDE1{P.M.R.Y.K.P.[dM].[am]}$$$$V2.0; N-terminus assumed; SMILES CSCC[C@H](NC(=O)[C@@H]1CCCN1)C(=O)N[C@@H](CCCNC(=N)N)C(=O)N[C@@H](Cc1ccc(O)cc1)C(=O)N[C@@H](CCCCN)C(=O)N1CCC[C@H]1C(=O)N[C@H](CCSC)C(N)=O) [peptide of SEQ ID NO 62] |
| > 10 | < 10 | KMKYKPM (HELM PEPTIDE1{[CCCC(=O)[*:2]].K.M.K.Y.K.P.[dM].[am]}$$$$V2.0; SMILES CCCC(=O)N[C@@H](CCCCN)C(=O)N[C@@H](CCSC)C(=O)N[C@@H](CCCCN)C(=O)N[C@@H](Cc1ccc(O)cc1)C(=O)N[C@@H](CCCCN)C(=O)N1CCC[C@H]1C(=O)N[C@H](CCSC)C(N)=O) [peptide of SEQ ID NO 68] |
| > 10 | < 10 | RWRYWYM (HELM PEPTIDE1{[ac].R.W.R.Y.W.Y.[dM].[am]}$$$$V2.0; SMILES CSCC[C@@H](NC(=O)[C@H](Cc1ccc(O)cc1)NC(=O)[C@H](Cc1c[nH]c2ccccc12)NC(=O)[C@H](Cc1ccc(O)cc1)NC(=O)[C@H](CCCNC(=N)N)NC(=O)[C@H](Cc1c[nH]c2ccccc12)NC(=O)[C@H](CCCNC(=N)N)NC(C)=O)C(N)=O) [peptide of SEQ ID NO 78] |
| > 10 | < 10 | KMKYKPM (HELM PEPTIDE1{[ac].K.M.K.Y.K.P.[dM].[am]}$$$$V2.0; SMILES CSCC[C@H](NC(=O)[C@H](CCCCN)NC(C)=O)C(=O)N[C@@H](CCCCN)C(=O)N[C@@H](Cc1ccc(O)cc1)C(=O)N[C@@H](CCCCN)C(=O)N1CCC[C@H]1C(=O)N[C@H](CCSC)C(N)=O) [peptide of SEQ ID NO 67] |
| > 10 | < 10 | PMRYKPM (HELM PEPTIDE1{[CCCCCCCC(=O)[*:2]].P.M.R.Y.K.P.[dM].[am]}$$$$V2.0; SMILES CCCCCCCC(=O)N1CCC[C@H]1C(=O)N[C@@H](CCSC)C(=O)N[C@@H](CCCNC(=N)N)C(=O)N[C@@H](Cc1ccc(O)cc1)C(=O)N[C@@H](CCCCN)C(=O)N1CCC[C@H]1C(=O)N[C@H](CCSC)C(N)=O) [peptide of SEQ ID NO 65] |
| > 10 | < 10 | RMRYWYM (HELM PEPTIDE1{R.M.R.Y.W.Y.[dM].[am]}$$$$V2.0; N-terminus assumed; SMILES CSCC[C@H](NC(=O)[C@@H](N)CCCNC(=N)N)C(=O)N[C@@H](CCCNC(=N)N)C(=O)N[C@@H](Cc1ccc(O)cc1)C(=O)N[C@@H](Cc1c[nH]c2ccccc12)C(=O)N[C@@H](Cc1ccc(O)cc1)C(=O)N[C@H](CCSC)C(N)=O) [peptide of SEQ ID NO 81] |
| > 10 | < 10 | HMRYKPM (HELM PEPTIDE1{[CCCC(=O)[*:2]].H.M.R.Y.K.P.[dM].[am]}$$$$V2.0; SMILES CCCC(=O)N[C@@H](Cc1c[nH]cn1)C(=O)N[C@@H](CCSC)C(=O)N[C@@H](CCCNC(=N)N)C(=O)N[C@@H](Cc1ccc(O)cc1)C(=O)N[C@@H](CCCCN)C(=O)N1CCC[C@H]1C(=O)N[C@H](CCSC)C(N)=O) [peptide of SEQ ID NO 60] |
| > 10 | < 10 | RMRYKVM (HELM PEPTIDE1{[CCCC(=O)[*:2]].R.M.R.Y.K.V.[dM].[am]}$$$$V2.0; SMILES CCCC(=O)N[C@@H](CCCNC(=N)N)C(=O)N[C@@H](CCSC)C(=O)N[C@@H](CCCNC(=N)N)C(=O)N[C@@H](Cc1ccc(O)cc1)C(=O)N[C@@H](CCCCN)C(=O)N[C@H](C(=O)N[C@H](CCSC)C(N)=O)C(C)C) [peptide of SEQ ID NO 7] |
| > 10 | < 10 | MKYKPM (HELM PEPTIDE1{M.K.Y.K.P.[dM].[am]}$$$$V2.0; N-terminus assumed; SMILES CSCC[C@H](N)C(=O)N[C@@H](CCCCN)C(=O)N[C@@H](Cc1ccc(O)cc1)C(=O)N[C@@H](CCCCN)C(=O)N1CCC[C@H]1C(=O)N[C@H](CCSC)C(N)=O) [peptide of SEQ ID NO 70] |
| > 10 | < 10 | RWRYKPM (HELM PEPTIDE1{R.W.R.Y.K.P.[dM].[am]}$$$$V2.0; N-terminus assumed; SMILES CSCC[C@@H](NC(=O)[C@@H]1CCCN1C(=O)[C@H](CCCCN)NC(=O)[C@H](Cc1ccc(O)cc1)NC(=O)[C@H](CCCNC(=N)N)NC(=O)[C@H](Cc1c[nH]c2ccccc12)NC(=O)[C@@H](N)CCCNC(=N)N)C(N)=O) [peptide of SEQ ID NO 74] |
| > 10 | < 10 | KWKYWYM (HELM PEPTIDE1{[ac].K.W.K.Y.W.Y.[dM].[am]}$$$$V2.0; SMILES CSCC[C@@H](NC(=O)[C@H](Cc1ccc(O)cc1)NC(=O)[C@H](Cc1c[nH]c2ccccc12)NC(=O)[C@H](Cc1ccc(O)cc1)NC(=O)[C@H](CCCCN)NC(=O)[C@H](Cc1c[nH]c2ccccc12)NC(=O)[C@H](CCCCN)NC(C)=O)C(N)=O) [peptide of SEQ ID NO 80] |
| > 10 | < 10 | MRYKPM (HELM PEPTIDE1{[CCCC(=O)[*:2]].M.R.Y.K.P.[dM].[am]}$$$$V2.0; SMILES CCCC(=O)N[C@@H](CCSC)C(=O)N[C@@H](CCCNC(=N)N)C(=O)N[C@@H](Cc1ccc(O)cc1)C(=O)N[C@@H](CCCCN)C(=O)N1CCC[C@H]1C(=O)N[C@H](CCSC)C(N)=O) [peptide of SEQ ID NO 56] |
